Legend:
Aβ11-29 = biological target: T1, Aβ11-29
T1 sequence (peptide): EVHHQKLVFFAEDVGSNKG

Aβ1-20, sequence (peptide, as listed by the source): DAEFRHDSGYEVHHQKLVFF

Question: How did the hydrolysis activity: remaining HPLC peak of the substrate (Aβ11-29) turn out when SKGQA [ANA-SA5] was run?
Answer: 72%

Question: What about the hydrolysis activity: remaining HPLC peak of the substrate (Aβ1-20) of the same binder?
Answer: 49.6%

— patent publication US20190023741A1
